Data reported in patent US20240117054A1 (DRAGONFLY THERAPEUTICS, published 2024).

T1: FLT3-ITD expressed on MV4-11 cells (human, UniProt P36888 27-543)
T1 construct: whole, on cells; the ITD itself is not described; also called hFLT3-ITD; FLT3 with the ITD mutation
T1 sequence (looked up): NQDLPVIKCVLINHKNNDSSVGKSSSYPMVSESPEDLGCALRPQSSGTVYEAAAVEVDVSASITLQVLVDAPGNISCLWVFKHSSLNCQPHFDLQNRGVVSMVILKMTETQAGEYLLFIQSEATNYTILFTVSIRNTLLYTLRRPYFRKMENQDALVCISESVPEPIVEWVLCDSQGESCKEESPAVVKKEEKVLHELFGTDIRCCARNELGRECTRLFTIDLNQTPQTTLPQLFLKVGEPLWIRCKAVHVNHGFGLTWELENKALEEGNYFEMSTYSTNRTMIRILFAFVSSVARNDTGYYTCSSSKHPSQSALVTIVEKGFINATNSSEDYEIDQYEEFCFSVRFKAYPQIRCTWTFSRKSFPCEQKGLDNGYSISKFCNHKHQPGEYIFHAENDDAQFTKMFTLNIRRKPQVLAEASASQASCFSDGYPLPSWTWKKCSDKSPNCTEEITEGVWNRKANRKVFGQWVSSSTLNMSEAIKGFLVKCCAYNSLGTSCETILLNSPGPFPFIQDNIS

T2: human FLT3 (hFLT3) expressed on cells (human, UniProt P36888 27-993)
T2 construct: whole, on cells; One molecule for all cell lines that carry human FLT3; also called RMA-hFLT3; FLT3 on REH cells
T2 sequence (looked up): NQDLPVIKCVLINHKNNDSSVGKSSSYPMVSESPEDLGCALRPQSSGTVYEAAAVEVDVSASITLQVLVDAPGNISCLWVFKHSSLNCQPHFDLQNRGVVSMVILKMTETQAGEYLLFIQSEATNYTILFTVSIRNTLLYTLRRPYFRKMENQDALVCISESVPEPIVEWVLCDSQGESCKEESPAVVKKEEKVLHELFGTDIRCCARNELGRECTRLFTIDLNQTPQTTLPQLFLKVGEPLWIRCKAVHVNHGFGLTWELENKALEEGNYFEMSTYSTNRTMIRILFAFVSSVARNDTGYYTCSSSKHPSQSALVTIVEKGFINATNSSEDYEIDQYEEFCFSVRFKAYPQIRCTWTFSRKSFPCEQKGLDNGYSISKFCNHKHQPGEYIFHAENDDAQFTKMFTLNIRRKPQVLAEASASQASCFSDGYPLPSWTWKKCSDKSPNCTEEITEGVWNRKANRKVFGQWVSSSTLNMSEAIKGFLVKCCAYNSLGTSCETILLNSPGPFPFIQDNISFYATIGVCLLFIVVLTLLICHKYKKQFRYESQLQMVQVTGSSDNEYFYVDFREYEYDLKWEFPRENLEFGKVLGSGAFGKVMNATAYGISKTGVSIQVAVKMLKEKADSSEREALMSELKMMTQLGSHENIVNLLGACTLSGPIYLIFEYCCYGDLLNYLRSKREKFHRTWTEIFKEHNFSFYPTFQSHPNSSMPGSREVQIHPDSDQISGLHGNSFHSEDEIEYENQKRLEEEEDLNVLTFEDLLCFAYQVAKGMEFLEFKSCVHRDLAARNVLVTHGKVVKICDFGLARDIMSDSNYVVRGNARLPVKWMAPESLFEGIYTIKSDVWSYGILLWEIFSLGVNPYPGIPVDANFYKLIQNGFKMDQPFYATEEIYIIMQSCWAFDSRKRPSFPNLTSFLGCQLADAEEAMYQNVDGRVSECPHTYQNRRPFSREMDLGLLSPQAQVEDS

T3: cynomolgus monkey FLT3 (cFLT3) expressed on RMA cells (cynomolgus monkey, UniProt A0A2K5VQ48 27-993)
T3 construct: whole, on cells; also called RMA-cFLT3; cynomolgus FLT3
T3 sequence: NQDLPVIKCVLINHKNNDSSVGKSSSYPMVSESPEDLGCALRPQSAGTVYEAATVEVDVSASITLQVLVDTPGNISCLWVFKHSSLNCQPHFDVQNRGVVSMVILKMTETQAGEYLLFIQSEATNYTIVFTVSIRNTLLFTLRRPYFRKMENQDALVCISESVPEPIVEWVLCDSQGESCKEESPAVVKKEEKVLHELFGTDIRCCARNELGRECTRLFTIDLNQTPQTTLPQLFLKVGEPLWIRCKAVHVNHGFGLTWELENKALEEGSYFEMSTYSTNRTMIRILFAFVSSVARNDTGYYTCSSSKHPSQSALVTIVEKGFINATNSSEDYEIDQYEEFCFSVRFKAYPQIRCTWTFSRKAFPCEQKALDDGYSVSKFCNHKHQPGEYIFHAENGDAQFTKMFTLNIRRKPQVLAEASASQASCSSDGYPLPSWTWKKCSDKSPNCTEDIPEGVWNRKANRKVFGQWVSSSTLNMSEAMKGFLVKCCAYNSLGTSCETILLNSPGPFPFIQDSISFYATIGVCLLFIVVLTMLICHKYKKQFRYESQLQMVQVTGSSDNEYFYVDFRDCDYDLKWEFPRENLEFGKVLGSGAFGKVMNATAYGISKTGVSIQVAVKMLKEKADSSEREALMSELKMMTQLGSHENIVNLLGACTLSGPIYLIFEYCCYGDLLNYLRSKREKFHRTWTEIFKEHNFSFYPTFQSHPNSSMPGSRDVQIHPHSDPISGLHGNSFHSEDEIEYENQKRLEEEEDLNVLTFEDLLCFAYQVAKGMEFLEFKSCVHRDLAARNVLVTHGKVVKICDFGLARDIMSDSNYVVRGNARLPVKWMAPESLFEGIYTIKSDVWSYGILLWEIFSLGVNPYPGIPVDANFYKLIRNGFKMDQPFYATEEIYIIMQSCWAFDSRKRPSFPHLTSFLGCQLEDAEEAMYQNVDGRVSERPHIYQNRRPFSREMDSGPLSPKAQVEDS

T4: hFLT3-His fusion protein (human, UniProt P36888 27-541, limits assumed)
T4 construct: Soluble recombinant antigen used for immunisation, ELISA, SPR and BLI binning; also called recombinant hFLT3 protein; not shown: His tag
T4 sequence (looked up): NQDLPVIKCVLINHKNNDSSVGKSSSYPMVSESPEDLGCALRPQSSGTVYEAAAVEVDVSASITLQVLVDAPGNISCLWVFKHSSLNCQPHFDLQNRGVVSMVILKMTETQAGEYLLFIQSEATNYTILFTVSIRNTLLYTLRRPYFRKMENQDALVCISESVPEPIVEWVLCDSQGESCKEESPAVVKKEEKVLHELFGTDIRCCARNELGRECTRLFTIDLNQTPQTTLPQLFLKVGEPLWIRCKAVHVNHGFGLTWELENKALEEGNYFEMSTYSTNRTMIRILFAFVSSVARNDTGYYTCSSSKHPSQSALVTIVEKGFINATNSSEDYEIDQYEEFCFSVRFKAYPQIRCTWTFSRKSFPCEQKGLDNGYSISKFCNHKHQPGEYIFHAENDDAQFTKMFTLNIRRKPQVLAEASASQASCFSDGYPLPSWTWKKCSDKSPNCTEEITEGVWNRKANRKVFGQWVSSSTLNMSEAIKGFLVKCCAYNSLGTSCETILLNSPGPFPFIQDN

B1: F3′-GB102 (bispecific antibody, human IgG1, kappa)
chain: DIVMTQSPDSLAVSLGERATINCRASESVDTYGSSFVHWYQQKPGQPPKLLIYLASNLESGVPDRFSGSGSGTDFTLTISSLQAEDVAVYYCQQNNEEPWTFGCGTKVEIKGGGGSGGGGSGGGGSGGGGSQVQLVQSGAEVKKPGASVKVSCKASGYTFTRYVMHWVRQAPGQCLEWMGFINPYNDDTKYNEKFKGRVTITRDTSASTAYMELSSLRSEDTAVYYCARWRQLGSLDSWGQGTTVTVSSGSDKTHTCPPCPAPELLGGPSVFLFPPKPKDTLMISRTPEVTCVVVDVSHEDPEVKFNWYVDGVEVHNAKTKPREEQYNSTYRVVSVLTVLHQDWLNGKEYKCKVSNKALPAPIEKTISKAKGQPREPRVYTLPPCRDELTKNQVSLTCLVKGFYPSDIAVEWESNGQPENNYKTTPPVLVSDGSFTLYSKLTVDKSRWQQGNVFSCSVMHEALHNHYTQKSLSLSPG
heavy: EVQLVESGGGLVKPGGSLRLSCAASGFTFSSYSMNWVRQAPGKGLEWVSSISSSSSYIYYADSVKGRFTISRDNAKNSLYLQMNSLRAEDTAVYYCARGAPIGAAAGWFDPWGQGTLVTVSSASTKGPSVFPLAPSSKSTSGGTAALGCLVKDYFPEPVTVSWNSGALTSGVHTFPAVLQSSGLYSLSSVVTVPSSSLGTQTYICNVNHKPSNTKVDKKVEPKSCDKTHTCPPCPAPELLGGPSVFLFPPKPKDTLMISRTPEVTCVVVDVSHEDPEVKFNWYVDGVEVHNAKTKPREEQYNSTYRVVSVLTVLHQDWLNGKEYKCKVSNKALPAPIEKTISKAKGQPREPQVCTLPPSRDELTENQVSLTCLVKGFYPSDIAVEWESNGQPENNYKTTPPVLDSDGSFFLYSWLTVDKSRWQQGNVFSCSVMHEALHNHYTQKSLSLSPG
light: DIQMTQSPSSVSASVGDRVTITCRASQGISSWLAWYQQKPGKAPKLLIYAASSLQSGVPSRFSGSGSGTDFTLTISSLQPEDFATYYCQQGVSFPRTFGGGTKVEIKRTVAAPSVFIFPPSDEQLKSGTASVVCLLNNFYPREAKVQWKVDNALQSGNSQESVTEQDSKDSTYSLSSTLTLSKADYEKHKVYACEVTHQGLSSPVTKSFNRGEC
notes: also called FLT3-targeting TriNKET
B2: 14H8.E7 (antibody, V domains shown)
VH: EVQLQESGAELVKPGASVKLSCKASGYTFTNYWINWLKQRPGQGLEWIGNIYPGSTIINYNEKFKNKATLTVDTSSSTAYMQLSSLTSDDSAVYYCARRVVYLYFDSWGQGTTLTVSS
VL: QIVLTQSPAIMSASPGEKVTMTCSASSSVSYMHWYQQKSGTSPKRWIFDTSKLASGVPVRFSGSGSGTSYSLTITNMETEDAATYYCQQWSSKSPTFGGGTKLEIK

How the values were obtained:
[1] = target: T1, FLT3-ITD expressed on MV4-11 cells; assay: flow cytometry on MV4-11 cells (FLT3-ITD), anti-human IgG secondary antibody, gMFI
Excerpt: (§1) Isogenic cell lines ectopically expressing human and cynomolgus monkey FLT3 were used to assess cross-reactivity between human and cynomolgus monkey FLT3. […] cancer cell line RMA expressing hFLT3 or cFLT3 was used to assess tumor antigen binding of FLT3-targeting TriNKET and parental mAb. The human AML cell lines MOLM-13 and MV4-11 and the human ALL cell line REH were used to assess binding ability of the TriNKET or parental mAb. In particular, MOLM-13 cells and MV4-11 cells, which expressed FLT3-T227M and FLT3-ITD, respectively, were used to assess the ability of the FLT3-targeting TriNKET and parental mAb to bind mutant FLT3.
(§2) The cells were then incubated with a fluorophore conjugated anti-human IgG secondary antibody and were analyzed by flow cytometry. The mean fluorescence intensity (MFI) values were normalized to secondary antibody only controls to obtain fold over background (FOB) values.

[2] = target: T2, human FLT3 (hFLT3) expressed on cells; assay: flow cytometry on REH cells, anti-human IgG secondary antibody, fold over background (FOB)
Excerpt: as §1, §2

[3] = target: T2, human FLT3 (hFLT3) expressed on cells; assay: flow cytometry on RMA-hFLT3 cells, anti-human IgG secondary antibody, fold over background (FOB)
Excerpt: as §1, §2

[4] = target: T3, cynomolgus monkey FLT3 (cFLT3) …; assay: flow cytometry on RMA-cFLT3 cells, anti-human IgG secondary antibody, fold over background (FOB)
Excerpt: as §1, §2

hFLT3-His fusion protein = target: T4, hFLT3-His fusion protein; assay: SPR, purified murine subclone, hFLT3-His, 1:1 binding fit

Row | Binder | EC50 (read off the curve) [1] | EC50 (read off the curve) [2] | EC50 (read off the curve) [3] | EC50 (read off the curve) [4] | binding result (hFLT3-His fusion protein)
1 | B1 | ~1 nM | ~5 nM | ~1 nM | ~1 nM | 
2 | B2 |  |  |  |  | binds
